This passage reports % cells in lower right quadrant results from patent US20150203575A1.

The target in experiment [1] is human NPDC1 expressed on cells (human) (UniProt Q9NQX5). Description: flow cytometry, transfected 293 cells, 2nd Ab anti-goat-IgG-PE; untransfected 293: 0.098. For orientation: In flow cytometry, cells or beads pass a laser one at a time.
The target of experiment [2] is human COLEC12 expressed on cells (human) (UniProt Q5KU26). Described as above.
In experiment [3] the target is human CD99 expressed on 293T cells (human) (UniProt P14209). The description is as above.
Sequence of human CD99 expressed on 293T cells (human) (P14209 23-185): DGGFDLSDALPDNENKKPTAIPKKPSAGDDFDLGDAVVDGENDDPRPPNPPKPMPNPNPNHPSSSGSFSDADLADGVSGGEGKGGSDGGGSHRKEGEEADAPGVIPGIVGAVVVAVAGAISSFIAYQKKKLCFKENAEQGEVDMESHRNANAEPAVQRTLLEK
The target in experiment [4] is FceRII expressed on cells (human) (UniProt P06734). Description: flow cytometry, transfected 293T cells, 2 µg/ml.
Sequence of FceRII expressed on cells (human) (P06734 whole entry N269T): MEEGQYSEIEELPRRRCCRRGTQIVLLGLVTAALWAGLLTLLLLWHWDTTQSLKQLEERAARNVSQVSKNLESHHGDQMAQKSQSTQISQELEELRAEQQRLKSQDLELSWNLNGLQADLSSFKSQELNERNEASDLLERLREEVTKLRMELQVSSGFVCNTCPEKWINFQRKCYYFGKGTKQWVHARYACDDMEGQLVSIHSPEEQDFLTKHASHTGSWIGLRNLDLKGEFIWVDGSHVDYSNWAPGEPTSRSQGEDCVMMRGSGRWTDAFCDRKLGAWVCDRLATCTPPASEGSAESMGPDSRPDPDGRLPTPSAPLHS
Experiment [5] shares this target. Description: flow cytometry, transfected 293T cells, 50 µg/ml.
Experiment [6] addresses human NPDC1 expressed on cells (human) (UniProt Q9NQX5). Description: flow cytometry, transfected 293 cells, 2nd Ab anti-mouse IgG2a FITC; untransfected 293: 0.
Experiment [7] has the same target. Description: flow cytometry, transfected 293 cells, 2nd Ab anti-His-PE; untransfected 293: 0.13.
The target in experiment [8] is human COLEC12 expressed on cells (human) (UniProt Q5KU26). Described as above.
For experiment [9], the target named is human CD99 expressed on 293T cells (human) (UniProt P14209). The experiment is described as above.
Experiment [10] addresses human NPDC1 expressed on cells (human) (UniProt Q9NQX5). Description: flow cytometry, transfected 293 cells, 2nd Ab anti-His-PE; untransfected 293: 0.059.
Experiment [11] deals with human COLEC12 expressed on cells (human) (UniProt Q5KU26). Described as above.
Experiment [12] has as its target human CD99 expressed on 293T cells (human) (UniProt P14209). The description is as above.

Sequence of human NPDC1 expressed on cells (human) (Q9NQX5 35-325 H113Q limits assumed): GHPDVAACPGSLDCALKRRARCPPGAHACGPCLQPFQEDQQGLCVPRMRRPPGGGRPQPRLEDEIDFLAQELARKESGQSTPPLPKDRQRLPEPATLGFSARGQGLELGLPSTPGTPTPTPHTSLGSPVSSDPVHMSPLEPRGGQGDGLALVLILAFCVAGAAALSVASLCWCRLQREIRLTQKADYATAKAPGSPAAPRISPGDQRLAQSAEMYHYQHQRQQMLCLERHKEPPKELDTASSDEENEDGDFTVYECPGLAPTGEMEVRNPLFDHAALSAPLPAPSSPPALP
Sequence of mPILRα-his (R&D) (receptor) (Q2YFS3 32-198): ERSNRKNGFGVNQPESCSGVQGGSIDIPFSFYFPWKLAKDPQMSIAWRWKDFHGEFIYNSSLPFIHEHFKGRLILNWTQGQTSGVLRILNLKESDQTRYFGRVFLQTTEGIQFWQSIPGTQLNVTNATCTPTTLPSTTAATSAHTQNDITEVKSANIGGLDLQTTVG
Sequence of human COLEC12 expressed on cells (human) (Q5KU26 whole entry S522P/G606S): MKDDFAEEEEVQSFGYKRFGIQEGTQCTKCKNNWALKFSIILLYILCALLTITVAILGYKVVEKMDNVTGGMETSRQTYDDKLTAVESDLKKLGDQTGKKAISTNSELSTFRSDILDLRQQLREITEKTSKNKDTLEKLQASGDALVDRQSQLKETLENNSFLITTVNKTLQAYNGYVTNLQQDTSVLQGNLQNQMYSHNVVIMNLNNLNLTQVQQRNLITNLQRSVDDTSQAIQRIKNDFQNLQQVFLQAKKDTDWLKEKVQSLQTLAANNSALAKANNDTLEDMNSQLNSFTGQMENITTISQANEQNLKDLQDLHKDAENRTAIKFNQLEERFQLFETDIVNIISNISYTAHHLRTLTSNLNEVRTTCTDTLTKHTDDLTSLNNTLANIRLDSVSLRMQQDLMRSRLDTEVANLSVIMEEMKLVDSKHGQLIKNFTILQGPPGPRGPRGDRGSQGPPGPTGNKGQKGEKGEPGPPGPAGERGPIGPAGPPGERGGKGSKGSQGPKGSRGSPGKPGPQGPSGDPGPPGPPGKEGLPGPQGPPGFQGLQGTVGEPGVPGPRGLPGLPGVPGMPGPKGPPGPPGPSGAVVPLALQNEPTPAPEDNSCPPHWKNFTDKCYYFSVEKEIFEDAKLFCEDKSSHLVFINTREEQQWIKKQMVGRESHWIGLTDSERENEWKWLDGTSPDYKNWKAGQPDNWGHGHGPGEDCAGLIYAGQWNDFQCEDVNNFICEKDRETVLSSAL
Sequence of mPILRβ-his (R&D) (receptor) (Q2YFS2 29-195): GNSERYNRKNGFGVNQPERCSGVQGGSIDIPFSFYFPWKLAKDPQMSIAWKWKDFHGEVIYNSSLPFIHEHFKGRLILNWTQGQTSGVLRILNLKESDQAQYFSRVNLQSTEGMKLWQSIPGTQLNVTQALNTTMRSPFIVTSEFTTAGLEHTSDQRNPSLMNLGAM

For the substance Goat IgG (Control) (antibody), the % cells in lower right quadrant was found to be 1.28% in experiment [1], 2.19% in experiment [2] and 0.19% in experiment [3].
As to “hPILRα-Fc (from UniProt Q9UKJ1 20-197) (Fc fusion)”, the % cells in lower right quadrant amounted to 15.5% in experiment [4] and 58.1% in [5].
The substance “hPILRαR126A-Fc (from UniProt Q9UKJ1 20-197) (Fc fusion)” displayed a % cells in lower right quadrant in [4] of 0.028%.
Substance mIgG2a (Control) (antibody) gave a % cells in lower right quadrant in experiment [6] of 0.018%.
As to “mPILRα-Fc (from UniProt Q2YFS3 32-198) (Fc fusion)”, the % cells in lower right quadrant in experiment [4] was 30.3%; in [5], 47.8%.
With mPILRα-his (R&D) (receptor), the % cells in lower right quadrant was 23.6% in experiment [7], 12.3% in experiment [8] and 0.24% in [9].
The substance “mPILRαR133A-Fc (from UniProt Q2YFS3 32-198) (Fc fusion)” came in with a % cells in lower right quadrant in [5] of 0.014%.
As for mPILRβ-his (R&D) (receptor), the % cells in lower right quadrant in experiment [10] was 0.22%; in experiment [11], 0.062%; in experiment [12], 0.043%.
